Where a chain is given by its changes, count along the chain named. Numbers in names are those of the source.
How the values were obtained:
[1] = biological target: T1, dog (Canis familiaris) B7H4, full length, on HEK-293F cells (dog, UniProt Q7Z7D3 25-282 (human entry)); assay: flow cytometry, HEK-293F cells transiently transfected with dog B7H4, PE anti-human IgG F(ab')2 [panel Dog B7H4]
T1 construct: Uniprot F1P8R9; also called dog B7H4
T1 chain: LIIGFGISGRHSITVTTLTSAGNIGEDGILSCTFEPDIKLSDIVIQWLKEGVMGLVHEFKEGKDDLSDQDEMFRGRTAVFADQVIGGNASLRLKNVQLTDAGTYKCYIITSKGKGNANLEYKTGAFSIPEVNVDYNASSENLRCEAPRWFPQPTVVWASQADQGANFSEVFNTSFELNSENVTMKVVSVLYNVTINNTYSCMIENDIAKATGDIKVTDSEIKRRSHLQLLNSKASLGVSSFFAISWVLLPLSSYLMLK
Description: (§1) Cells (3×10⁴ cells/well) were incubated in polystyrene 96-well round-bottom plates (Greiner bio-one, cat. no. 650180) with serial dilutions of antibodies (ranging from 0.000458 to 30 μg/mL in 4-fold dilution steps) in 100 μL PBS/0.1% BSA/0.02% azide (staining buffer) at 4° C. for 30 min. Experiments were performed in technical duplicate. After washing twice in staining buffer, cells were incubated in 50 μL secondary antibody at 4° C. for 30 min. As a secondary antibody, R-Phycoerythrin (PE)-conjugated goat-anti-human IgG F(ab′)₂ (1:500 in FACS buffer; Jackson ImmunoResearch Laboratories, Inc., West Grove, PA, cat. no. 109-116-098), was used. Cells were washed twice in staining buffer, re-suspended in 30 μL FACS buffer containing Topro-3 (1:10,000 dilution) and analyzed on an iQue Screener (Intellicyt Corporation, USA). Binding curves were analyzed using non-linear regression (sigmoidal dose-response with variable slope) using GraphPad Prism V7.02 software (GraphPad Software, San Diego, CA, USA).

[2] = biological target: T2, cynomolgus monkey (Macaca fascicularis) B7H4 transcript 1, full length, on HEK-293F cells (cynomolgus monkey, UniProt Q7Z7D3 25-282 (human entry)); assay: flow cytometry, HEK-293F cells transfected with cynomolgus monkey B7H4 [panel Cynomolgus monkey B7H4]
T2 construct: Uniprot A0A2K5U6P5; also called cynomolgus monkey B7H4; cynomolgus B7H4
T2 chain: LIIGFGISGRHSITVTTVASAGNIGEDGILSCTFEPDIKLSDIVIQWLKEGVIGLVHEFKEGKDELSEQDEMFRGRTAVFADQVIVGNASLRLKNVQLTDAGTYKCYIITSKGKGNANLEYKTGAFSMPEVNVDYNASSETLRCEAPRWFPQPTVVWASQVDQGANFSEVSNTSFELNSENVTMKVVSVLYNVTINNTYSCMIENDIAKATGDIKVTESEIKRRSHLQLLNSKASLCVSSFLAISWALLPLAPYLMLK
Description: as §1

[3] = biological target: T3, mouse (Mus musculus) B7H4, full length, on HEK-293F cells (mouse, UniProt Q7TSP5 25-257); assay: flow cytometry, HEK-293F cells transiently transfected with mouse B7H4, PE anti-human IgG F(ab')2 [panel Mouse B7H4]
T3 construct: Uniprot Q7TSP5; also called mouse B7H4
T3 sequence: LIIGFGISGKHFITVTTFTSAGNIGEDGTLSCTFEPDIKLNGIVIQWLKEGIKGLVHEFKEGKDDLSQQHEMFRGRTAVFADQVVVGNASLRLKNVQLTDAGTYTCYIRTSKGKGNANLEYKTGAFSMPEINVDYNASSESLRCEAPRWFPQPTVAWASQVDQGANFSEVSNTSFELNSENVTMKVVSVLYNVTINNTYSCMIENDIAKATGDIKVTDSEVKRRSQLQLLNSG
Description: as §1

[4] = biological target: T4, rat (Rattus norvegicus) B7H4, full length, on HEK-293F cells (rat, UniProt Q501W4 25-257); assay: flow cytometry, HEK-293F cells transiently transfected with rat B7H4, PE anti-human IgG F(ab')2 [panel Rat B7H4]
T4 construct: Uniprot Q501W4; also called rat B7H4
T4 sequence: T3 sequence with R109H, Q228E
Description: as §1

[5] = biological target: T5, human B7H4, full length, on cells (human, UniProt Q7Z7D3 25-282); assay: flow cytometry, HEK-293F cells transiently transfected with human B7H4, PE anti-human IgG F(ab')2 [panel Human B7H4]
T5 construct: Uniprot Q7Z7D3; Used for transfected HEK cells and for the B7H4-expressing human tumor cell lines (endogenous B7H4); also called VTCN1
T5 sequence: T2 chain with I53L, L242F, A252S
Description: as §1

[6] = biological target: T2, cynomolgus monkey (Macaca fascicularis) …; assay: flow cytometry, HEK-293F cells transiently transfected with cynomolgus monkey B7H4, PE anti-human IgG F(ab')2 [panel Cynomolgus monkey B7H4]
Description: as §1

[7] = biological target: T5, human B7H4, full length, on cells; assay: flow cytometry on MDA-MB-468 tumor cells [MDA-MB-468 left panel]
Description: as §1
Binding was analyzed by flow cytometry as described above.

B1: IgG1-B7H4-C1-N52S-FEAR (antibody, V domains shown)
VH: QVQLQQWGAGLLKPSETLSLTCAVYGGSFSGYYWSWIRQPPGKGLEWIGEISHSGSTNYNPSLKSRVTISIDTSKNQFSLKLTSVTAADTAVFYCARGLFNWNFDSWGQGTLVTVSS
VL: DIQMTQSPSSLSASVGDRVTITCRASQGIRNDLGWYQQKPGKAPKRLIYGASSLQSGVPSRFSGSGSGTEFTLTISSLQPEDFATYYCLQHNSYPRTFGQGTTVEIKR
notes: Full length human IgG1 with L234F, L235E, D265A, K409R (FEAR) heavy chain constant region and kappa light chain; bivalent, monospecific; also called IgG1-B7H4-C1-052S-FEAR
[1]
  EC50 (read off the curve): ~0.3 µg/mL
[2]
  EC50 (read off the curve): ~0.1 µg/mL
[3]
  EC50 (read off the curve): ~0.3 µg/mL
[4]
  EC50 (read off the curve): ~0.3 µg/mL
[5]
  EC50 (read off the curve): ~0.3 µg/mL
[6]
  EC50 (read off the curve): ~0.2 µg/mL
[7]
  EC50 (read off the curve): ~1 µg/mL

B2: bsIgG1-huCD3-H101G-FEALxB7H4-C1-N52S-FEAR (bispecific antibody)
heavy 1: not shown
light 1: not shown
heavy 2: QVQLQQWGAGLLKPSETLSLTCAVYGGSFSGYYWSWIRQPPGKGLEWIGEISHSGSTNYNPSLKSRVTISIDTSKNQFSLKLTSVTAADTAVFYCARGLFNWNFDSWGQGTLVTVSSASTKGPSVFPLAPSSKSTSGGTAALGCLVKDYFPEPVTVSWNSGALTSGVHTFPAVLQSSGLYSLSSVVTVPSSSLGTQTYICNVNHKPSNTKVDKRVEPKSCDKTHTCPPCPAPEFEGGPSVFLFPPKPKDTLMISRTPEVTCVVVAVSHEDPEVKFNWYVDGVEVHNAKTKPREEQYNSTYRVVSVLTVLHQDWLNGKEYKCKVSNKALPAPIEKTISKAKGQPREPQVYTLPPSREEMTKNQVSLTCLVKGFYPSDIAVEWESNGQPENNYKTTPPVLDSDGSFFLYSRLTVDKSRWQQGNVFSCSVMHEALHNHYTQKSLSLSPGK
light 2: DIQMTQSPSSLSASVGDRVTITCRASQGIRNDLGWYQQKPGKAPKRLIYGASSLQSGVPSRFSGSGSGTEFTLTISSLQPEDFATYYCLQHNSYPRTFGQGTTVEIKRTVAAPSVFIFPPSDEQLKSGTASVVCLLNNFYPREAKVQWKVDNALQSGNSQESVTEQDSKDSTYSLSSTLTLSKADYEKHKVYACEVTHQGLSSPVTKSFNRGEC
notes: also called bslgG1-huCD3-H101G-FEALxB7H4-C1-N52S-FEAR; BslgG1-huCD3-H101G-FEALxB7H4-C1-N52S-FEAR
[1]
  binding result: binds
[3]
  binding result: binds
[4]
  binding result: binds
[5]
  EC50 (read off the curve): ~0.9 µg/mL
[6]
  EC50 (read off the curve): ~0.6 µg/mL

B3: IgG1-B7H4-C5-FEAR (antibody, V domains shown)
VH: QLQLQESGPGLVKPSETLSLTCTVSGGSIKSGSYYWGWIRQPPGKGLEWIGNIYYSGSTYYNPSLRSRVTISVDTSKNQFSLKLSSVTAADTAVYYCAREGSYPNQFDPWGQGTLVTVSS
VL: EIVMTQSPATLSVSPGERATLSCRASQSVSSNLAWYQQKPGQAPRLLIYGASTRATGIPARFSGSGSGTEFTLTISSLQSEDFAVYYCQQYHSFPFTFGGGTKVEIKR
notes: Full length IgG1 FEAR, kappa; variable domains from US20190085080A1
[2]
  binding result: binds
[7]
  EC50 (read off the curve): ~0.2 µg/mL
